Measured values published in patent publication US20170334973A1 (INTEGRATED BIOTHERAPEUTICS, published 2017).

Assays:
[1] = target: T1, EBOV VLP (Ebola virus (EBOV), UniProt Q05320 33-676); assay: ELISA
T1 sequence: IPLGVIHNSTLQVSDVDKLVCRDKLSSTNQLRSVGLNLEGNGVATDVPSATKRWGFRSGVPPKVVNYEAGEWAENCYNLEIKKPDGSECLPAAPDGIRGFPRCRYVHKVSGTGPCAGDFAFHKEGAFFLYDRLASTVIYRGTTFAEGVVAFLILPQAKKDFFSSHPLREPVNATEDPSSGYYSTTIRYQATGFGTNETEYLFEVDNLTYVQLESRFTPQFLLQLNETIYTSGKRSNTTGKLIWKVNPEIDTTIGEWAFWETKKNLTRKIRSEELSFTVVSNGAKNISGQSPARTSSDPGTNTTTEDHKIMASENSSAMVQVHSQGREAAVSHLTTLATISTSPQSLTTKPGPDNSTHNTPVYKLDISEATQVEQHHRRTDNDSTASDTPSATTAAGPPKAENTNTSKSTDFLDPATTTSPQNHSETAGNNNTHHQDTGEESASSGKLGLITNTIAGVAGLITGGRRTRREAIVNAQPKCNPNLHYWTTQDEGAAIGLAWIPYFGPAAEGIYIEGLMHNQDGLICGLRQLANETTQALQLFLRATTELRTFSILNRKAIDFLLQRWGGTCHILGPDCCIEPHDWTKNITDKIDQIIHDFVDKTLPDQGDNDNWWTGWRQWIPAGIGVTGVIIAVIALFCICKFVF

[2] = target: T2, SUDV VLP (Sudan virus (SUDV), UniProt Q66814 33-676); assay: ELISA
T2 sequence: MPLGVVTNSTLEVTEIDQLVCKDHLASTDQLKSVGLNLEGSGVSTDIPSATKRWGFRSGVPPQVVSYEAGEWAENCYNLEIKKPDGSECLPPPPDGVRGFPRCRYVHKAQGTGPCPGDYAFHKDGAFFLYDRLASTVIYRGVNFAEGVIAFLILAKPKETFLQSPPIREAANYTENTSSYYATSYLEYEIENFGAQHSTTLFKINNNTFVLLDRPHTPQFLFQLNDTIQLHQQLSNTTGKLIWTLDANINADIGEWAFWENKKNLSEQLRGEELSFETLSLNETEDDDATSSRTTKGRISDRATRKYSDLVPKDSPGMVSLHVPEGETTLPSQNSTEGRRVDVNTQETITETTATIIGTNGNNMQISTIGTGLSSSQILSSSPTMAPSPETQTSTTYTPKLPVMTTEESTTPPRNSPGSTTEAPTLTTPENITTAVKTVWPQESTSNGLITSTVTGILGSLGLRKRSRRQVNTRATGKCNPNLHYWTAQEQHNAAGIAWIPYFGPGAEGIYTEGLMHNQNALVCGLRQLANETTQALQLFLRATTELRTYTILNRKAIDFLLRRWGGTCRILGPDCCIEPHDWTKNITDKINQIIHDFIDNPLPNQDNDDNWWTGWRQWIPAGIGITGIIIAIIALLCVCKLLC

B1: FVM35 (antibody, V domains shown)
VH: EVQLVQSGAEVKRPGESLTISCKTSGYSFTSYWITWVRQMPGKGLEWLGSIYPGDSETKYNPSFQGHVTISADKSVTTTYLKWSSLKASDTATYYCVKGSETWGQGVLVTVSS
VL: QPVLTQPASLSASPGASASLTCTFSGGINVAGYNILWYQQKAGSPPRYLLRYKSDSTKDQGSGVPSRFSGSKDASANTGILRISGLQSEDEADYYCAIGHSSGWIFGGGTRLTVL
[1]
  EC50: 0.233 nM
[2]
  EC50: 0.14 nM

B2: FVM32 (antibody, V domains shown)
VH: QVQLVQSGAEVKRPGESLRISCKTSGYSFTDSWVAWVRQMPGKGLEWLGSIYPGDSDTRYSPSFQGQVTISADKSITTAYLKWSSLKASDTATYYCVKGSETWGQGVLVTVSS
VL: QPVLTQPASLSASPGASASLTCTFNGGITVPGYDILWYQQKSGSPPRYLLRYKSDSTKDQGSGVPSRFSGSKDASTNTGILRISGLQSEDEADYYCAIGHSSGWIFGGGTRLTVL
[1]
  EC50: 0.66 nM
[2]
  EC50: 0.187 nM

B3: FVM18 (antibody, V domains shown)
VH: QVQLVQSGAEVKRPGESLKISCKTSGYSFTNIWISWVRQMPGKGLEWLGSIYPGDSETKYNPSFQGHVTISADKSVTTTYLKWSSLKASDTATYYCVKGSETWGQGVLVTVSS
VL: NFMLTQPASLSASPGASASLTCTFSGGINVAGYHILWYQQKPGSPPRYLLRYKSDSEKDQGSGVPSRFSGSKDASANRGILRISGLQSEDEADYYCAIGHSSSGWVFGGGTRLTVL
[1]
  EC50: 1.03 nM
[2]
  EC50: 1.08 nM

B4: FVM21 (antibody, V domains shown)
VH: EVQLVESGAEVKRPGESLTISCKTSGYSFTDSWVAWVRQMPGKGLEWLGSIYPGDSETKYNPSFQGHVTISADKSISTTYLQWSSLRASDTATYYCVKGADDWGPGLLVTVSS
VL: SSELTQPASLSASPGASASLTCTFSGGINVAGYNILWYQQKAGSPPRYLLRYKSDSDKGQGSGVPSRFSGSKDASANTGILRISGLQSEDEADYYCAIGHSSGWIFGGGTRLTVL
[1]
  EC50: 0.32 nM
[2]
  EC50: 0.373 nM

B5: FVM10 (antibody, V domains shown)
VH: QVQLVQSGAEVKRPGESLKISCQTSGYSFTDSWVAWVRQMPGKGLEWLGSIYPGDSETKYNPSFQGHVTISADKSISTAYLQWSSLKASDTATYYCAKGSETWGQGLRVTVSS
VL: QAGLTQPASLSASPGASASLTCTFSGGINVAGYNILWYQQKPGSPPRYLLRYKSDSDKDQGSGVPSRFSGSKDASANTGILRISGLQSEDEADYYCAIGHSSGWIFGGGTRLTVL
[1]
  EC50: 0.653 nM
[2]
  EC50: 0.687 nM

B6: FVM17 (antibody, V domains shown)
VH: EVQLVQSGAEVKRPGESLTISCKTSGYSFTDSWISWVRQMPGKGLEWMGSIYPGDSDARYNPSFQGHVTISADKSISTTYLKWSSLKASDTATYYCVKGSETWGQGVLVTVSS
VL: QAVVTQPASLSASPGTSASLTCTFSGGINVAGYNILWYQQKPGSPPRFLLRYKSDSDNVQGSGVPSHFSGSKDASANTGILRISGLQSEDEADYYCAIGHSSGWIFGGGTRLTVL
[1]
  EC50: 0.767 nM
[2]
  EC50: 1.43 nM

B7: FVM25 (antibody, V domains shown)
VH: EVQLVHSGAEVKRPGESLTISCKTSGYTFTDYWIAWVRQMPGKGLEWMASIYPDDSDTRYNPSFQGHVTISADKSISTTYLQWSSLRASDTATYYCVKGSETWGQGVLVTVSS
VL: QLVLTQPASLSASPGTSASLTCTFSGGINVAGYNILWYQQKPGSPPRFLLRYKSDSDNVQGSGVPSHFSGSKDASTNTGILRISGLQSEDEADYYCAIGHSSGWVFGGGTRLTVL
[1]
  EC50: 0.473 nM
[2]
  EC50: 0.96 nM

B8: FVM23 (antibody, V domains shown)
VH: QVQLVQSGAEVKRPGESLTISCKTSGYSFTGSWISWVRQMPGKGLEWMGSIYPGDSDTTYNPSFQGHVTISADKSISTAYLQWTSLKASDTATYYCVKGSETWGQGVLVTVSS
VL: SYELTQPASLSASPGASASLTCTFSGGINVAGYNILWYQQKAGSPPRYLLRYKSDSTKDQGSGVPSRFSGSKDASANTGILRISGLQSEDEADYYCAIGHSSGLIFGAGTRLTVL
[1]
  EC50: 0.367 nM
[2]
  EC50: 0.353 nM

B9: FVM19 (antibody, V domains shown)
VH: QVQLVQSGAEVKRPGESLTISCKTSGYSFTDSWVAWVRQMPGKGLEWLGSIYPGDSDTKYNPSFQGHVTISADKSVTTTYLKWSSLKASDTATYYCVKGSETWGQGVLVTVSS
VL: KPMLTQPASLSASPGASASLTCTFSGGINVAGYHIFWYQQKPGSPPRYLLRYKSDSDKGQGSGVPSRFSGSKDASANTGILRISGLQSEDEADYYCAIGHSSGLLFGGGTRLTVL
[1]
  EC50: 0.967 nM
[2]
  EC50: 5.4 nM

B10: FVM12 (antibody, V domains shown)
VH: EVQLVQSGAEVKRPGESLTISCKTSEYSFTGSWISWVRQMPGKGLEWMGSIYPGDSDTRYSPSFQGQVTISADKSVTTTYLKWSSLKASDTATYYCVKGSETWGQGVLVTVSS
VL: QPVLTQPASLSASLGASASLTCTFSGGINVAGYNILWYQQKPGSPPRFLLRYKSDSDNVQGSGVPSHFSGSKDASTNTGILRISGLQSEDEADYYCAIGHSSGWVFGGGTRLTVL
[1]
  EC50: 0.622 nM
[2]
  EC50: 0.673 nM

B11: FVM24 (antibody, V domains shown)
VH: EVQLVQSGAEVKRPGESLKISCKTSGYSFTDSWVAWVRQMPGKGLEWMGSIYPGDFQTRYNPSFQGHVTLSADKSISTTYLQWSSLKASDTATYYCVKGSETWGPGVLVTVSS
VL: SSGLTQPASLSASPGASASLTCTFSGGINVAGYNILWYQQKAGSPPRYLLRYKSDSTKDQGSGVPSRFSGSKDVSANTGILRISGLQSDDEADYYCAIGHSSGWIFGGGTRLTVL
[1]
  EC50: 0.513 nM
[2]
  EC50: 3.2 nM

B12: FVM37 (antibody, V domains shown)
VH: QVQLVQSGAEVKRPGESLKISCKTSGYRFTSSWISWVRQMPGKGLEWLGSIYPGDSETKYNPSFQGHVTISADKSVTTTYLKWSSLKASDTATYYCVKGSETWGQGVLVTVSS
VL: SSELTQPASLSASPGASASLTCTFSGGINVAGYNILWYQQKAGSPPRYLLRYKSDSTKDQGSGVPSRFSGSKDASANTGILRISGLQSEDEADYYCAIGHSSGWIFGGGTRLTVL
[1]
  EC50: 0.227 nM
[2]
  EC50: 0.127 nM

B13: FVM41 (antibody, V domains shown)
VH: EVQLVQSGAEVKRPGESLKISCKTSGYSFTDTWISWVRQMPGKGLEWMGSIYPGDSETKYNPSFQGHVTISADKSVTTTYLKWSSLKASDTATYYCVKGSETWGQGVLVTVSS
VL: ETVVTQPASLSASPGASASLTCTFSGGINVAGYNILWYQQKAGSPPRYLLRYKSDSTKDQGSGVPSRFSGSKDASANTGILRISGLQSEDEADYYCAIGHSSGVLFGGGTRLTVL
[1]
  EC50: 0.36 nM
[2]
  EC50: 0.32 nM

B14: FVM38 (antibody, V domains shown)
VH: QVQLVQSGAEVKRPGESLTISCKTSGYSFTDSWIGWVRQMPGKGLEWMASIYPDDSETKYNPSFQGHVTISADKSVTTTYLKWSSLKASDTATYYCVKGSETWGQGVLVTVSS
VL: QPVLTQPASLSASPGASASLTCTFSGGINVAGYNILWYQQKAGSPPRYLLRYKSDSTKDQGSGVPSRFSGSKDASANTGILRISGLQSEDEADYYCAIGHSSGWIFGGGTRLTVL
[1]
  EC50: 0.253 nM
[2]
  EC50: 0.147 nM

B15: FVM40 (antibody, V domains shown)
VH: EVQLVQSGAEVKRPGESLTISCKTSGYSFTDSWISWVRQMPGKGLEWMGSIYPGDSETKYNPSFQGHVTISADKSVTTTYLKWSSLKASDTATYYCVKGSETWGQGVLVTVSS
VL: QPMLTQPASLSASPGASASLTCTFSGGINVAGYNILWYQQKAGSPPRYLLRYKSDSTKDQGSGVPSRFSGSKDASANTGILRISGLQSEDEADYYCAIGHSSGWIFGGGTRLTVL
[1]
  EC50: 0.173 nM
[2]
  EC50: 0.113 nM

B16: FVM28 (antibody, V domains shown)
VH: EVQLVQSGAEVKRPGESLKISCQTSGYRFTSSWISWVRQMPGKGLEWMGAIDPSDSETRYSPSFQGQVTISADKSISTAYLKWSSLKASDTATYYCVKGSETWGQGVLVTVSS
VL: QAALTQPASLSASPGASASLTCTFSGGINVAGYHILWYQQKPGSPPRYLLRYKSDSEKDQGSGVPSRFSGSKDASANRGILRISGLQSEDEADYYCAIGHSSSGWVFGGGTRLTVL
[1]
  EC50: 0.593 nM
[2]
  EC50: 0.58 nM
